Results on three molecules are retold here after US20120178908A1 (Novo Nordisk, published 2012).

One test deals with T1, hTLT-1 ECD-HPC4 L42A (human, UniProt Q86YW5 16-162).
T1 construct: As m27; also called Ala mutant 8
T1 chain: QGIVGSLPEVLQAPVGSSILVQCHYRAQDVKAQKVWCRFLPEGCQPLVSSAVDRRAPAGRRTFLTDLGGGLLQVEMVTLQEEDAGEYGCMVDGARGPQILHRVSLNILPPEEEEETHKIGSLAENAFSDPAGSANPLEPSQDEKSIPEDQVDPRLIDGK
The experiment in a line: SPR (ProteOn), mAb captured by anti-hFc, 100 nM mutant, signal 10 s after injection normalised to captured mAb. How it is done:
(§1) Each anti-body was diluted in 10 mM sodium acetate pH 5.0 to a concentration of […], and was immobilized to an individual flow cell at 30 μl/min for 240s. The antibodies were immobilized to flow cells A1-A6 (horizontal direction). After immobilization, the active sites on the flow cell were blocked with 1 M ethanolamine. The final immobilization level of capture antibody typically ranged from approximately 9,000 to 10,000 RU in one experiment. Capture of the anti-TLT1 antibodies 0197-0000-0023, 0197-0000-0051, 0197-0000-0061 and 0197-0000-0062 was conducted by diluting to […] into HBS-EP buffer (10 mM HEPES, 150 mM NaCl, 3 mM EDTA, 0.05% surfactant P20, pH 7.4) and injected at 30 μl/min for 60s in vertical direction, creating interspot reference points with only anti-human Fc antibodies. The final capture level of test antibodies typically ranged from approximately 200 to 300 RU in one experiment. Binding of wt or Ala mutant hTLT-1 ECD-HPC4 protein was conducted by injecting over parallel flow cells in horizontal direction to allow for comparative analyses of binding to different captured anti-TLT1 antibodies relative to binding to the interspot references. Each hTLT-1 ECD-HPC4 protein was diluted to 100 nM, based on the calculated average Mw, into HBS-EP buffer and injected at 30 μl/min for 240s. The GLM chip was regenerated after each injection cycle of analyte via one 18 s injection of 1 M Formic acid followed by a 18s injection of 50 mM NaOH at 100 μl/min. This regeneration step removed the anti-TLT1 antibody and any bound TLT1 from the immobilized capture antibody surface, and allowed for the subsequent binding of the next test sample pair.
(§2) Data analysis was performed using the ProteOn Manager™ Software. No significant non-specific binding to the interspot control surfaces was observed. Binding curves were processed by double referencing (subtraction of interspot control surface signals as well as blank buffer injections over captured anti-TLT1 antibodies). This allowed correction for instrument noise, bulk shift and drift during sample injections. Binding signal at 10 s after stop of analyte injection was normalized to level of captured anti-TLT1 antibody and presented as binding relative to wt hTLT-1 ECD-HPC4 protein.

Another test has as its target T2, hTLT-1 ECD-HPC4 H116A (human, UniProt Q86YW5 16-162).
T2 construct: As m27; also called Ala mutant 31
T2 chain: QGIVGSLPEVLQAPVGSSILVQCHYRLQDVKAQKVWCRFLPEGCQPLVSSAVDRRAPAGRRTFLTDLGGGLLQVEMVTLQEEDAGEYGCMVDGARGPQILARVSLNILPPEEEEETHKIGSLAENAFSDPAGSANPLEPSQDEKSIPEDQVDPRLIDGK
Described as above. How it is done:
as §1, §2

The next test deals with T3, hTLT-1 ECD-HPC4 R41A (human, UniProt Q86YW5 16-162).
T3 construct: As m27; also called Ala mutant 7
T3 chain: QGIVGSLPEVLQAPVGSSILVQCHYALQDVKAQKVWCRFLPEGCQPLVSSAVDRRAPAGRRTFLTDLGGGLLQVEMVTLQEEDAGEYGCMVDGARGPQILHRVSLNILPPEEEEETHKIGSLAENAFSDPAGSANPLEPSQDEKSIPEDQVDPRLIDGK
The description is as above. How it is done:
as §1, §2

A further test deals with T4, hTLT-1 ECD-HPC4 F54A (human, UniProt Q86YW5 16-162).
T4 construct: As m27; also called Ala mutant 12
T4 chain: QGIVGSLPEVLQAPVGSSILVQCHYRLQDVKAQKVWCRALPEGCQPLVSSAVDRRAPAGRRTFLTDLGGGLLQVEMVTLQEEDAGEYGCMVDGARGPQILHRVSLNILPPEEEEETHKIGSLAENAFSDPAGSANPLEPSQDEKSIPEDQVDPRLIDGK
The test is described as above. The protocol:
as §1, §2

The next test addresses T5, hTLT-1 ECD-HPC4 M91A (human, UniProt Q86YW5 16-162).
T5 construct: As m27; also called Ala mutant 24
T5 chain: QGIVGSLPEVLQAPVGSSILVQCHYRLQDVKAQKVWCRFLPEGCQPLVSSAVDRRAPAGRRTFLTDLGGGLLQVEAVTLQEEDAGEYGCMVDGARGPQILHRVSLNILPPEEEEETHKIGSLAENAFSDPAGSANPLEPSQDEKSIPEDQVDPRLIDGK
Described as above. The protocol:
as §1, §2

A further test has as its target T6, hTLT-1 ECD-HPC4 R110A (human, UniProt Q86YW5 16-162).
T6 construct: As m27; also called Ala mutant 30
T6 chain: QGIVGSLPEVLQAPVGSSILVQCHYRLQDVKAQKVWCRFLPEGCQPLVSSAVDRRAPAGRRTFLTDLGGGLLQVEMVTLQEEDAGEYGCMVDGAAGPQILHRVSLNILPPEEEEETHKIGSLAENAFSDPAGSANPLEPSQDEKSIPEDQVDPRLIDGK
The test is described as above. The protocol:
as §1, §2

For another test, the target named is T7, hTLT-1 ECD-HPC4 Q43A (human, UniProt Q86YW5 16-162).
T7 construct: As m27; also called Ala mutant 9
T7 chain: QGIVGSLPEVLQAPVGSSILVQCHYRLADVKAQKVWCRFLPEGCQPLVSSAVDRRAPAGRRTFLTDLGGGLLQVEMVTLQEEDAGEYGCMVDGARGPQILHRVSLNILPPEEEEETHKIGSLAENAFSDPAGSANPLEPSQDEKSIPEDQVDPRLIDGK
The test is described as above. How it is done: as §1, §2

Test [1] addresses T8, TLT1 (human TLT-1, reagent of the SPR studies, source NN) (human, UniProt Q86YW5 16-162, limits assumed).
T8 sequence: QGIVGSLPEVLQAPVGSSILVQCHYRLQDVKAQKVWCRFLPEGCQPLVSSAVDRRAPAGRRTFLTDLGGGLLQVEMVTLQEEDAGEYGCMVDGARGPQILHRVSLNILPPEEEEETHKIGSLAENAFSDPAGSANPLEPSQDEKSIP
The experiment in a line: SPR (Biacore), mAb immobilised directly on CM5, TLT1 as analyte. How it is done:
The mAbs of interest were either immobilized directly to a CM5 chip or by capture via a human Fc capture mAb immobilized to a CM5 chip.
Direct capture: The TLT-1 mAbs were immobilised to a level of approx 500-1000 RU on a CM5 chip (50 μg/ml diluted in Na-acetate, pH 4.0) using the standard procedure recommended by the supplier. Two-fold dilutions of TLT1 from 200 nM to 0.2 nM were tested for binding to the mABs. Running and dilution buffer: 10 mM HEPES, 150 mM, 0.005% p20, pH 7.4. Regeneration was obtained by 10 mM Glycine, pH 1.7.

A further test addresses T9, hTLT-1 ECD-HPC4 K46A (human, UniProt Q86YW5 16-162).
T9 construct: As m27; also called Ala mutant 10
T9 chain: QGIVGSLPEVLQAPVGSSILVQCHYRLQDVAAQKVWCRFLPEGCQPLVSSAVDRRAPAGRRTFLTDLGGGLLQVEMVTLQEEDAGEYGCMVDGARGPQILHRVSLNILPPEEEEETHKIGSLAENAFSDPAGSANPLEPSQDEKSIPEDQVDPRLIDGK
The experiment in a line: SPR (ProteOn), mAb captured by anti-hFc, 100 nM mutant, signal 10 s after injection normalised to captured mAb. How it is done: as §1, §2

Test [2] concerns the target T10, hTLT-1.126-162 (TLT-1 stalk peptide) (human).
T10 construct: Made by solid phase peptide synthesis; not glycosylated; also called chain P of the crystal structure
T10 peptide: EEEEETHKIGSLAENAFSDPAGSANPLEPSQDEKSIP
In words: crystal structure of the Fab0100:hTLT-1.126-162 complex. The text has this:
Crystallogr. 40, 658-674) of the CCP4 suite (Bailey,S. (1994) Acta Crystallogr. Sect. D-Biol. Crystallogr. 50, 760-763). […] Additional crystallographic refinements, using the REFMAC5 software program (Murshudov, G. N. et al. Acta Crystallogr. Sect. D-Biol. Crystallogr. 53, 240-255), followed by computer graphics inspection of the electron density maps, model corrections and building, using the COOT software program (Emsley, P. et al. Acta Crystallogr. Sect. D-Biol. Crystallogr. 60, 2126-2132), were applied. The procedure was cycled until no further significant improvements could be made to the model.
The crystal was allowed to soak for about 15 seconds, then flash frozen in liquid N₂ and during data collection kept at 100 K by a cryogenic N₂ gas stream. Crystallographic data were subsequently collected to 1.85 Å resolution at beam-line BL911-3 (Ursby, T. et al. (2004) AIP Conference Proceedings 705, 1241-1246) at MAX-lab, Lund, Sweden. Space group determination, integration and scaling of the data were made in the XDS software package. Cell parameters for the synchrotron data were determined to be 82.54, 65.32, 108.05 Å, 90°, 95.15° and 90°, for a, b, c, α, β and γ, respectively, and space group was determined to be C2. Rsym for intensities of the data set was calculated to be 6.7%. […]

Bounds are passed on as bounds.

B1: mAb 0062 HC2; LC2 (antibody, V domains shown)
VH: QVQLQQSGAEPMKPGASVKISCKATGYTFSSHWIEWIKQRPGHGLEWIGEILPGSGNTNYNEKFKGKATFTADTSSNTAYMQLSSLTSEDSAVYYCARGYYGLNYDWYFDVWGAGTTVTVSS
VL: DIQMTQTTSSLSASLGDRVTISCRASQDISNYLNWYQQKPDGTVKLLIFYTSRLHSGVPSRFSGSGSGTDYSLTISNLEPEDIATYYCQQDTKLPYTFGGGTKLEMKR
notes: also called 0197-0000-0062; 0052HC.C91Y + 0052LC
For the molecule B1, the “binding relative to wt hTLT-1 ECD-HPC4” value with hTLT-1 ECD-HPC4 L42A was < 0.6 fraction of wt binding; in the test with hTLT-1 ECD-HPC4 H116A, < 0.6 fraction of wt binding; with hTLT-1 ECD-HPC4 R41A it was < 0.2 fraction of wt binding; with hTLT-1 ECD-HPC4 F54A, < 0.6 fraction of wt binding; with hTLT-1 ECD-HPC4 M91A it was < 0.4 fraction of wt binding; with hTLT-1 ECD-HPC4 R110A, < 0.2 fraction of wt binding. In the test with hTLT-1 ECD-HPC4 Q43A, the “binding relative to wt hTLT-1 ECD-HPC4” value is < 0.4 fraction of wt binding. In test [1], the Kd was determined as 4.12 nM. Also, in test [1], the koff is 0.00134 s⁻¹. Besides, the on-rate (kon) in test [1] is 326000 M⁻¹ s⁻¹.

B2: mAb 0023 HC2; LC2 (antibody, V domains shown)
VH: EVRLVESGGGLVQPGGSLKLSCATSGFTFSDYFMYWIRQTPEKRLEWVAYISNGGDSSSYPDTVKGRFTISRDNAKNTLYLQMSRLKSEDTAMYYCATNKNWDDYYDMDYWGQGTSVTVSS
VL: DIVVSQSPSSLAVSAGEKVTMSCKSSQSLLNSRTRKNYLAWYQQKPGQSPKLLIYWASTRESGVPDRFTGSGSGTDFTLTISSVQAEDLAVYYCKQSYNLLTFGAGTKLELKR
notes: also called 0197-0000-0023
As for B2, the “binding relative to wt hTLT-1 ECD-HPC4” value with hTLT-1 ECD-HPC4 L42A was < 0.2 fraction of wt binding; in the test with hTLT-1 ECD-HPC4 K46A it was < 0.2 fraction of wt binding; in the test with hTLT-1 ECD-HPC4 M91A it was < 0.4 fraction of wt binding; with hTLT-1 ECD-HPC4 R110A it was < 0.2 fraction of wt binding; with hTLT-1 ECD-HPC4 Q43A, < 0.2 fraction of wt binding. In [1], the affinity, expressed as Kd, was 4.36 nM. In test [1], this molecule gave an off-rate constant (koff) of 0.00125 s⁻¹. Further, the association rate constant (kon) in test [1] came to 287000 M⁻¹ s⁻¹.

B3: Fab0100 (anti-TLT-1 Fab) (Fab, V domains shown)
VH: EVKLLESGGGLVQPGGSLKLSCAASGFDFSRYWMTWVRQAPGKGLEWIGEINPDSSTINYNPSLKDKFIISRDNAKNTLYLQMSEVRSEDTALYYCASGVFTSWGQGTLVTVSA
VL: DVVMTQTPLSLPVSLGDQASISCRSSQSLVHRNGNTYFHWALQKPGQSPKLLIYKVSNRFSGVPDRFSGSGSGTDFTLKISRVEAEDLGVYFCSQSTHVPYTFGGGTKLEIKR
notes: also called Fab 0061 (Fab 0012-LC.C36A; VH.T60N-CH1)
In the case of B3, the binding result in [2] is on record as “binds”.

Usually Kd stands for the equilibrium constant for the complex coming apart. For orientation: koff means the rate constant with which the complex falls apart. As a reminder, the kon is the second-order rate constant of association.
